Experimental data from patent US20250270308A1 (UCB, published 2025).

Biological target: T1, human TNFα in complex with compound (1) (human, UniProt P01375 77-233)
T1 construct: also called human TNFα + compound (1); compound-distorted human TNFα
Assay: size exclusion HPLC

T1 sequence (P01375 77-233 limits assumed, one chain of several): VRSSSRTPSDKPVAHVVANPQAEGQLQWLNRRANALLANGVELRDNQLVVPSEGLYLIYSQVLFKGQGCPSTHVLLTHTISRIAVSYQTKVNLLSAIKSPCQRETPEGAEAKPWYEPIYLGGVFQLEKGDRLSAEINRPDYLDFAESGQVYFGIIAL

B1: CA185_01979 mouse Fab (no hinge) (Fab, V domains shown)
VH: EVHLVESGPGLVKPSQSLSLTCSVTGYSITNSYWDWIRKFPGNKMEWMGYINYSGSTGYNPSLKSRISISRDTSNNQFFLQLNSITTEDTATYYCARGTYGYNAYHFDYWGRGVMVTVSS
VL: DIQMTQSPASLSASLEEIVTITCQASQDIGNWLSWYQQKPGKSPHLLIYGTTSLADGVPSRFSGSRSGTQYSLKISGLQVADIGIYVCLQAYSTPFTFGSGTKLEIKR
notes: also called CA185_01979 mFab; CA185-01979 Fab fragment
- stoichiometry: 1 Fab per TNFα trimer
